In patent publication US20200024330A1:

What was measured:
Assay in all cases: cell-based or functional assay
[1] = molecular target: HIV-1 Env of isolate 92TH021 (CRF01_AE), on pseudovirus (HIV-1)
[2] = molecular target: HIV-1 Env of isolate MG RM-A-006 (HIV-1)
[3] = molecular target: HIV-1 Env of isolate MGRM-C-020 (HIV-1)
[4] = molecular target: HIV-1 Env of isolate MGRM-F1-014 (subtype F), on pseudovirus (HIV-1)
[5] = molecular target: HIV-1 Env of isolate MGRM-F1-018 (subtype F), on pseudovirus (HIV-1)
[6] = molecular target: HIV-1 Env of isolate MGRM-F1-023 (subtype F), on pseudovirus (HIV-1)
[7] = molecular target: HIV-1 Env of isolate QH0692.42 (HIV-1)
[8] = molecular target: HIV-1 93UG077 envelope protein (Env) on pseudovirus (HIV-1)
[9] = molecular target: HIV-1 98CN006 envelope glycoprotein (Env) on pseudovirus (HIV-1)
[10] = molecular target: HIV-1 APV-13 envelope protein (Env) on pseudovirus (HIV-1)
[11] = molecular target: HIV-1 APV-17 envelope protein (Env) on pseudovirus (HIV-1)
[12] = molecular target: HIV-1 Env of isolate MGRM-D-026 (clade D) (HIV-1)
[13] = molecular target: HIV-1 Env of pseudovirus 92BR020, clade B (HIV-1)
[14] = molecular target: HIV-1 Env of pseudovirus MGRM-Chronic-B-002, clade B (HIV-1)
[15] = molecular target: HIV-1 Env of pseudovirus TRJ0.58 (Acute), clade B (HIV-1)
[16] = molecular target: HIV-1 IAVI-C22 envelope glycoprotein (Env) on pseudovirus (HIV-1)
[17] = molecular target: HIV-1 MGRM-F1-018 Env (pseudovirus) (HIV-1)
[18] = molecular target: HIV-1 JR-CSF envelope protein (Env) on pseudotyped virus (HIV-1 isolate JR-CSF) (UniProt P20871)
[19] = molecular target: HIV-1 NL43 envelope protein (Env) on pseudotyped virus (HIV-1 NL43)
[20] = molecular target: HIV-1 Env of isolate MGRM-D-026 (HIV-1)
[21] = molecular target: HIV-1 Env of isolate MGRM-F1-012 (HIV-1)
[22] = molecular target: HIV-1 Env of isolate MGRM-G-009 (subtype G) (HIV-1)
[23] = molecular target: HIV-1 Env of isolate MGRM-G-013 (subtype G) (HIV-1)
[24] = molecular target: HIV-1 envelope glycoprotein (Env) of isolate MGRM-C-027, on pseudovirus (HIV-1)
[25] = molecular target: HIV-1 Env of isolate 92UG024 (subtype D) (HIV-1)
[26] = molecular target: HIV-1 Env of isolate MG RM-AG-008 (HIV-1)
[27] = molecular target: HIV-1 Env of isolate MG RM-AG-013 (HIV-1)
[28] = molecular target: HIV-1 Env of isolate MGRM-C-004 (pseudovirus) (HIV-1 isolate MGRM-C-004, subtype C)
[29] = molecular target: HIV-1 Env of isolate MGRM-C-006 (pseudovirus) (HIV-1 isolate MGRM-C-006, subtype C)
[30] = molecular target: HIV-1 Env of isolate MGRM-C-009 (pseudovirus) (HIV-1 isolate MGRM-C-009, subtype C)
[31] = molecular target: HIV-1 Env of isolate MGRM-C-026 (pseudovirus) (HIV-1 isolate MGRM-C-026, subtype C)
[32] = molecular target: HIV-1 Env of isolate MGRM-C-028 (pseudovirus) (HIV-1 isolate MGRM-C-028, subtype C)

Chain of 1443_C16 (PG16) (TCN-116) (antibody) (VH): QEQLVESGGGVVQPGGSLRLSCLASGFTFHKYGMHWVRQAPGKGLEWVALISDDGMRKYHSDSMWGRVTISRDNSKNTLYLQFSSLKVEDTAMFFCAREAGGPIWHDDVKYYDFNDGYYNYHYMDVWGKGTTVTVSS
Chain of 1443_C16 (PG16) (TCN-116) (antibody) (VL): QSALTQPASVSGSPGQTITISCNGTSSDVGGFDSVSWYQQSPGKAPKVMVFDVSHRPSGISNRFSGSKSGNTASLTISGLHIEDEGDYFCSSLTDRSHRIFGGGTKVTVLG
Chain of 5345_I01 (PGT-137) (antibody) (VH): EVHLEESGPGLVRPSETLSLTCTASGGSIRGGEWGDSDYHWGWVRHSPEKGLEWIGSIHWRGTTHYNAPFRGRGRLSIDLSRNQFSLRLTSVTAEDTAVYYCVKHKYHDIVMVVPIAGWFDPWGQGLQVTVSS
Chain of 5345_I01 (PGT-137) (antibody) (VL): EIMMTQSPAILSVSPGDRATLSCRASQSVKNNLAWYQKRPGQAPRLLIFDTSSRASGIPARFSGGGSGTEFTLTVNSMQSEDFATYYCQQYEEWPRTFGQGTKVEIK
Chain of 5329_C19 (PGT-136) (antibody) (VH): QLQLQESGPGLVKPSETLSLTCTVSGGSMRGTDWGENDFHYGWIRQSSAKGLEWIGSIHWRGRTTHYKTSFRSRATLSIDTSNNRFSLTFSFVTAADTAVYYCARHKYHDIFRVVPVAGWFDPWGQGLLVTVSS
Chain of 5329_C19 (PGT-136) (antibody) (VL): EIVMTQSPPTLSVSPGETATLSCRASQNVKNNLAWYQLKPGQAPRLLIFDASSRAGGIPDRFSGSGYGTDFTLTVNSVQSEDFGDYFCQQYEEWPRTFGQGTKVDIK

Substance	IC50, single-round pseudovirus neutralization [1] [µg/mL]	neutralization IC50 [2] [µg/mL]	IC50 [3] [µg/mL]	IC50, pseudovirus neutralization [4] [µg/mL]	IC50, pseudovirus neutralization [5] [µg/mL]	IC50, pseudovirus neutralization [6] [µg/mL]	IC50 [7] [µg/mL]	neutralization IC50 [8] [µg/mL]	IC50 (µg/ml), pseudovirus neutralization [9] [µg/mL]	neutralization IC50 [10] [µg/mL]	neutralization IC50 [11] [µg/mL]	IC50 (µg/ml), pseudovirus neutralization [12] [µg/mL]	IC50 (µg/ml), pseudovirus neutralization [13] [µg/mL]	IC50 (µg/ml), pseudovirus neutralization [14] [µg/mL]	IC50 (µg/ml), pseudovirus neutralization [15] [µg/mL]	IC90 (pseudovirus neutralization) [16] [µg/mL]	IC50 (µg/ml), pseudovirus neutralization [17] [µg/mL]	further results
5329_C19 (PGT-136) (antibody)	> 50	> 50	> 50	> 50	> 50	> 50	> 50											
2G12 (antibody)								> 50	> 50	23.9	> 50	> 50	4.84	> 50	> 50	> 50	> 50	
5136_H01 (PGT-131) (antibody)	0.014	> 50	> 50	> 50	> 50	> 50	> 50											
1443_C16 (PG16) (TCN-116) (antibody)								> 50	> 50	> 50	> 50	> 50	> 50	3.06	1.16	> 50	0.01	IC50, pseudovirus neutralization, 1 hour Virus/Ab Incubation [18]: < 0.0025 µg/mL; IC50, pseudovirus neutralization, 18 hour Virus/Ab Incubation [18]: < 0.0025 µg/mL; IC50, pseudovirus neutralization, 1 hour Virus/Ab Incubation [19]: < 0.0025 µg/mL; IC50, pseudovirus neutralization, 18 hour Virus/Ab Incubation [19]: 4.99 µg/mL
4E10 (antibody)								11.2	1.91	3.8	5.1	2.95	> 50	2.19	11.9	16.4	3.6	
VRC01 (antibody)																		IC50, pseudovirus neutralization [20]: 0.435 µg/mL; IC50, pseudovirus neutralization [21]: 0.488 µg/mL; neutralization IC50 [22]: 0.073 µg/mL; neutralization IC50 [23]: 0.553 µg/mL; neutralization IC50 [7]: 1.19 µg/mL; IC50, pseudovirus neutralization [24]: 0.125 µg/mL
5145_B14 (PGT-127) (antibody)																		IC50 (µg/mL), pseudovirus neutralization [25]: > 50 µg/mL; neutralization IC50 [26]: > 50 µg/mL; neutralization IC50 [27]: 0.018 µg/mL; IC50 (µg/mL) neutralization [28]: 0.532 µg/mL; IC50 (µg/mL) neutralization [29]: 0.319 µg/mL; IC50 (µg/mL) neutralization [30]: > 50 µg/mL; IC50 (µg/mL) neutralization [31]: 0.014 µg/mL; IC50 (µg/mL) neutralization [32]: 7.57 µg/mL
4838_L06 (PGT-121) (antibody)																		IC50 (µg/mL), pseudovirus neutralization [25]: > 50 µg/mL; IC50 (µg/mL) neutralization [28]: 0.011 µg/mL; IC50 (µg/mL) neutralization [29]: 0.017 µg/mL; IC50 (µg/mL) neutralization [30]: > 50 µg/mL; IC50 (µg/mL) neutralization [31]: 0.002 µg/mL; IC50 (µg/mL) neutralization [32]: 0.472 µg/mL
5345_I01 (PGT-137) (antibody)	> 50	> 50	> 50	> 50	> 50	> 50	> 50											
